Patent US9688764B2, “Methods of treating breast cancer by administering anti-human prolactin receptor (PRLR) antibodies” (REGENERON PHARMACEUTICALS, INC., priority 2013, dated 2017)

T1: PRLR-expressing cells (T47D) (Homo sapiens, UniProt P16471)
T1 construct: a native PRLR expressing cell line (T47D); endogenous in cells; host or cells: T47D
T1 sequence (P16471 25-622): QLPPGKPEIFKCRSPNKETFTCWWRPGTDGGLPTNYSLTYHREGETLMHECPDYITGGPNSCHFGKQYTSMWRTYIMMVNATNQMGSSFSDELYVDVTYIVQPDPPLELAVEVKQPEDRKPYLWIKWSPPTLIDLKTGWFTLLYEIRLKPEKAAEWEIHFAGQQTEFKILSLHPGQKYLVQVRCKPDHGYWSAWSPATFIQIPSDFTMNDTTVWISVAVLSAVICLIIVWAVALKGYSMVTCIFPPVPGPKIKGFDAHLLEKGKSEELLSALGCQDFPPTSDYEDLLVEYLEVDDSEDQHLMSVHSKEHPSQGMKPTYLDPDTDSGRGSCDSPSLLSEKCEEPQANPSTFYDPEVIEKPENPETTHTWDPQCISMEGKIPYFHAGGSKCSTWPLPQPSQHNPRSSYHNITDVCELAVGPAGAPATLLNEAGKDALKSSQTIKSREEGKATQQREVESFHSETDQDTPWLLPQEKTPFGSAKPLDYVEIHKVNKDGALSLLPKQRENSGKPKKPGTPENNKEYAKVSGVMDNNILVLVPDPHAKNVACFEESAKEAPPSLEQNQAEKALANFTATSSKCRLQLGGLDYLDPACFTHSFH

B1: H1H6800P: anti-PRLR antibody, human IgG1 Fc; HCVR/LCVR SEQ ID NOs 194/202 (antibody, V domains shown)
VH: EVQLVESGGGLVQPGRSLRLSCAASGFTFDGYAMHWVRQGPGKGLEWVSGISWYSDTLGYADSVKGRFTISRDNAKNSLYLQMNSLRTEDTAFYYCAKISSSGWAFDYWGQGTLVTVSS
VL: EIVLTQSPGTLSLSPGERATLSCRASHSVSSAYLAWYQQKPGQTPRLLIYGTSSRATGIPDRFSGSGSGTDFTLTISRLEPEDFAVYYCQQYGSSPLFTFGPGTKVDIK
modifications: human IgG1 Fc
B2: H1H6797P: anti-PRLR antibody, human IgG1 Fc; HCVR/LCVR SEQ ID NOs 178/186 (antibody, V domains shown)
VH: EVQLVESGGGLVQPGGSLRLSCIVSGFTFSGSWMSWVRQLPGKGLEWVANIKEDGSDSYYVDSVEGRFTISRDNAKSSLYLQMNSLRVDDTAVYFCARARTVPLHYWGQGTLVTVSS
VL: DIQMTQSPSTLSASVGDRVTITCRASQSINIWLAWYQQKPGKAPKLLIYRASYLESGVPSSFAGGGSGTEFTLTISSLQPDDFGTYYCQHYNSYPFTFGQGTKLEIK
modifications: human IgG1 Fc
B3: H1H6804P: anti-PRLR antibody, human IgG1 Fc; HCVR/LCVR SEQ ID NOs 242/250 (antibody, V domains shown)
VH: QVTLKESGPVLVKPTQTLSLTCTVSGFSLSDAGMGVSWIRQPPGKALEWLAHIFSNDGKSYSTSLKSRLTISKDTSKRQVVLTMTNMDPVDTATYYCARIRTGTYSLYLDYWGQGTLVTVSS
VL: DIQMTQSPSSLSASVGDRVTITCRASQSINSYLNWYQQKPGKAPKLLLYFASSLQSGVPSRFSGSGSGTDFTLTISSLQPEDFASYYCQESYSTPWTFGQGTKVEIK
modifications: human IgG1 Fc
B4: H1H6803P: anti-PRLR antibody, human IgG1 Fc; HCVR/LCVR SEQ ID NOs 226/234 (antibody, V domains shown)
VH: EVQLVESGGGVVRPGGSLRLSCAASGFKFDDYGMTWVRHVPGKGLEWVSGINWNGGRTGYTDSVKGRFTISRDNAKNSLYLQMNSLRAEDTALYHCAGARRDAFDIWGQGTMVTVSS
VL: DIQMTQSPSSLSASIGDRVTITCRASQNIIKYLNWYQQNAGKAPKLLIYTASSLQSGVPSRFSGSGSGTDFTLTISSLQPEDFATYYCQQSSSSPYTFGQGTKLEIK
modifications: human IgG1 Fc
B5: H1H6958N2: human IgG1 Fc form of H2M6958N2; anti-PRLR, receptor blocking; HCVR/LCVR SEQ ID NOs 290/298 (antibody, V domains shown)
VH: QVQLVESGGGVVQPGRSLRLSCGASGFTFRNYGMQWVRQGPGKGLEWVTLISFDGNDKYYADSVKGRFTISRDNSKNTLFLQMNSLRTEDTAVYYCARGGDFDYWGQGTLVTVSS
VL: DIQMTQSPSSLSASVGDRVTITCRASQDIRKDLGWYQQKPGKAPKRLIYAASSLHSGVPSRFSGSGSGTEFTLTISSLQPEDFATYYCLQHNSYPMYTFGQGTKLEIK
modifications: human IgG1 Fc
B6: H1H6801P: anti-PRLR antibody, human IgG1 Fc; HCVR/LCVR SEQ ID NOs 210/218 (antibody, V domains shown)
VH: QVQLQQSGPGLVKPSQTLSLTCVISGDSVSSNTAWNWVRQSPSRGLEWLGRTYYRSKWYNDYAVSVKSRITINPDTSKNQFSLLMNSVTPEDTAVYYCARVVRGLNYFDYWGQGTLVTVSS
VL: DIVMTQSPDSLAVSLGERATINCKSSQSVLYNSNNKNYLAWYQQKPGQPPKLLIYWSSSRESGVPDRFSGSGSGTDFTLTISGLQAEDVAIYYCQQYSTIPYTFGQGTKLEIK
modifications: human IgG1 Fc

target: mfPRLR.mmh (monomeric macaca fascicularis PRLR); assay: Surface plasmon resonance (Biacore T200), mAb-capture format; format: binding; details: 25° C., antibody-capture format, analyte mfPRLR.mmh
Sequence (as listed by the source): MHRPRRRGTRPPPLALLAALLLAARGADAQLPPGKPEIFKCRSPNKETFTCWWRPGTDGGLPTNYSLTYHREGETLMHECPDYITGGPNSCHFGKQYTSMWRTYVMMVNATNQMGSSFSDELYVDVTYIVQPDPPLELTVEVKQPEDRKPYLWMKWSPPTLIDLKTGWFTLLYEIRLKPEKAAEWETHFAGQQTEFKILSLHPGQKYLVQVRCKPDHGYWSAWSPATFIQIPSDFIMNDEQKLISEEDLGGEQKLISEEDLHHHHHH
Protocol: (§1) Antibodies, expressed as human IgG1 Fc “[…]” designations), were captured onto an anti-human Fc sensor surface (mAb-capture format), and soluble monomeric (hPRLR.mmh; SEQ ID NO:401, or macaca fascicularis (mf) PRLR.mmh; SEQ ID NO:403) or dimeric (hPRLR.mFc; SEQ ID NO:402) PRLR protein was injected over the sensor surface. Measurements were conducted on a T200 Biacore instrument. Kinetic association (ka) and dissociation (kd) rate constants were determined by processing and fitting the data to a 1:1 binding model using Scrubber 2.0 curve fitting software.

| Kd | Molecule | T½ |
| --- | --- | --- |
| 1.25 nM | B1 | 30 min |
| 3.12 nM | B2 | 6 min |
| 1.99 nM | B3 | 18 min |
| 3.37 nM | B4 | 55 min |
| 1.44 nM | B5 | 41.3 min |
| 1.88 nM | B6 | 9 min |

same assay, conditions: 37° C., antibody-capture format, analyte mfPRLR.mmh

| Kd | Molecule | T½ |
| --- | --- | --- |
| 2.48 nM | B1 | 11 min |
| 9.9 nM | B2 | 1 min |
| 9.35 nM | B3 | 3 min |
| 7.28 nM | B4 | 18 min |
| 4.08 nM | B5 | 8.6 min |
| 10.8 nM | B6 | 1 min |

target: T2, hPRLR.mmh (soluble monomeric human PRLR) (Homo sapiens, UniProt P16471); assay: as above; format: binding; details: 25° C., antibody-capture format, analyte hPRLR.mmh
T2 construct: soluble monomeric (hPRLR.mmh); mmh (myc-myc-hexahistidine)
T2 sequence (P16471 with tags, fused parts or gaps): as the sequence (as listed by the source) above, with V105I, T139A, M154I, T187I, I236T counted along it
Protocol: as §1

| Kd | T½ | Molecule |
| --- | --- | --- |
| 0.972 nM | 28 min | B1 |
| 1.73 nM | 6 min | B2 |
| 1.4 nM | 18 min | B3 |
| 1.67 nM | 84 min | B4 |
| 1.17 nM | 42.5 min | B5 |
| 0.894 nM | 15 min | B6 |

same assay, conditions: 37° C., antibody-capture format, analyte hPRLR.mmh

| Kd | T½ | Molecule |
| --- | --- | --- |
| 1.47 nM | 10 min | B1 |
| 6.37 nM | 1 min | B2 |
| 6.34 nM | 3 min | B3 |
| 2.83 nM | 32 min | B4 |
| 3.16 nM | 8.8 min | B5 |
| 4.63 nM | 3 min | B6 |

target: T3, hPRLR.mFc (soluble dimeric human PRLR) (Homo sapiens, UniProt P16471); assay: as above; format: binding; details: 25° C., antibody-capture format, analyte hPRLR.mFc
T3 construct: dimeric (hPRLR.mFc)
T3 sequence (P16471 with tags, fused parts or gaps): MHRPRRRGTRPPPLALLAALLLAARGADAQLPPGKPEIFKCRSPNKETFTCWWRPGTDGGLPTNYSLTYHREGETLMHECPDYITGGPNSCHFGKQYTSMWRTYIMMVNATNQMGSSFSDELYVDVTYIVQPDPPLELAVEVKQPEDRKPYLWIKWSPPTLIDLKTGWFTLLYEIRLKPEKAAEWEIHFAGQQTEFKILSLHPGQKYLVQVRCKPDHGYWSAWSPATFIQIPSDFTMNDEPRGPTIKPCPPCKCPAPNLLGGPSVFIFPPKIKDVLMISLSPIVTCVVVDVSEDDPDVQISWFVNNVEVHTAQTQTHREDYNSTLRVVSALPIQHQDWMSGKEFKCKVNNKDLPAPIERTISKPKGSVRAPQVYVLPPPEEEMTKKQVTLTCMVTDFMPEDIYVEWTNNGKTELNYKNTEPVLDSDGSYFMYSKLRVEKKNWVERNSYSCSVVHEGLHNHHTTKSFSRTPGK
Protocol: as §1

| Kd | T½ | Molecule |
| --- | --- | --- |
| 0.184 nM | 133 min | B1 |
| 0.122 nM | 97 min | B2 |
| 0.193 nM | 133 min | B3 |
| 0.607 nM | 184 min | B4 |
| 0.0867 nM | 315.8 min | B5 |
| 0.161 nM | 106 min | B6 |

same assay, conditions: 37° C., antibody-capture format, analyte hPRLR.mFc

| Kd | T½ | Molecule |
| --- | --- | --- |
| 0.229 nM | 79 min | B1 |
| 0.0691 nM | 93 min | B2 |
| 0.369 nM | 56 min | B3 |
| 0.461 nM | 186 min | B4 |
| 0.167 nM | 83.3 min | B5 |
| 0.279 nM | 52 min | B6 |

target: T1, PRLR-expressing cells (T47D); assay: Antibody binding and internalization by PRLR-expressing cells (imaging); format: cell-based; details: [mAb] (0.67 nM), alexa488 intensity in intracellular vesicles, 1 h at 37° C.
Protocol: In this Example, the internalization of anti-PRLR antibodies by PRLR-expressing cells (T47D) was assessed. Briefly, 20,000 T47D cells were seeded in collagen coated 96 well plates. […] Cells were then incubated with alexa488 conjugated anti-hFc Fab secondary antibodies for 30 minutes on ice followed by two additional PBS washes. Antibodies were allowed to internalize for 1 h at 37° C. in internalization buffer (PBS+2% FBS) or remained at 4° C. Cells were fixed in 4% formaldehyde, nuclei were stained with DRAQ5 (Cell signaling), and images were acquired on the ImageXpress micro XL (Molecular Devices). Whole cell alexa488 intensity at 37° C. (Binding) and the alexa488 intensity in the intracellular vesicles at 37° C. (Internalization) were determined via Columbus image analysis software (PerkinElmer).

| % Internalization relative to Control I | Molecule |
| --- | --- |
| 198.3% | B1 |
| 145.2% | B2 |
| 138.9% | B3 |
| 190.5% | B4 |
| 169.0% | B5 |
| 148.9% | B6 |

same assay, conditions: [mAb] (0.67 nM), whole cell alexa488 intensity at 37° C.

| % Total Binding relative to Control I | Molecule |
| --- | --- |
| 186.8% | B1 |
| 151.2% | B2 |
| 149.6% | B3 |
| 205.5% | B4 |
| 161.5% | B5 |
| 155.7% | B6 |

test system: MCF7/PRLR tumors; assay: Tumor growth inhibition in xenograft-bearing mice; format: in vivo, NCr nude mice; details: MCF7/PRLR tumors; single dose 15 mg/kg; Day 55
Excerpt: Briefly, 20×10^6 MCF7/PRLR cells (ATCC HTB-22 transfected with full length hPRLR as previously described) were implanted subcutaneously into the left mammary fat pad of female NCr nude mice. In other studies, 10×10^6 PC3/PRLR (ATCC CRL-1435 transfected with full length hPRLR as previously described) were implanted subcutaneously into the left flank of male SCID mice. Additionally, 10×10^6 parental T47D (ATCC HTB-133) or […] T47D#11 cells (ATCC HTB-133 serially passaged in vivo as described below) were subcutaneously implanted into the left flank of female CB17 SCID mice. All mice were obtained from Taconic (Hudson, N.Y.). Each bolus of cells was supplemented with a 90-day estrogen release pellet (1.7 mg/pellet; Innovative Research America, Sarasota Fla.). Once tumors had reached an average volume of 250 mm^3, mice were randomized into groups of seven and dosed with anti-PRLR antibody-drug conjugates of the invention or control reagents. Control reagents included PBS vehicle, free methyl-disulfide DM1 (DM1-SMe) and isotype Control 1-DM1.
In multi-dose studies, mice were dosed once a week for a total of three weeks with tumor volumes and body weights being monitored twice weekly throughout the study. Test ADCs were dosed at 5 and/or 15 mg/kg in the multi-dose studies. In single-dose studies, mice received a single dose of test ADC, and tumor volumes and body weights were monitored twice weekly throughout the study. Test ADCs were dosed at 1, 2.5, 5, and 15 mg/kg in the single-dose studies. Average tumor size as well as tumor growth inhibition relative to the vehicle treated group were calculated for each group. Tumors were measured with calipers twice a week until the average size of the vehicle group reached 1000 mm^3. Tumor size was calculated using the formula (length×width^2)/2. Tumor growth inhibition was calculated according to the following formula: (1−((Tfinal−Tinitial)/(Cfinal−Cinitial)))*100, where T (treated group) and C (control group) represent the mean tumor mass on the day the vehicle group reached 1000 mm^3. […] Results are summarized in Tables 21-25 (multi-dose) and Table 26 (single dose). (NT=not tested in the particular experiment shown).

| Molecule | Average Tumor Growth Inhibition (%) |
| --- | --- |
| B5 | 1% |
